Source: the supplement of paper PMC9112550, “Optimization of the antimicrobial peptide Bac7 by deep mutational scanning” (BMC Biology, 2022)

test system: Escherichia coli TOP10; experiment: shrunken log2 fold change of peptide-encoding DNA abundance (4.5 h post-induction vs induction); higher = less antimicrobial activity (less host growth inhibition); details: time post-induction: 4.5 h; library: site-saturation at positions 5, 18, 19, 20
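Also: peptides expressed intracellularly from a pBAD plasmid library in pooled LB shake-flask culture, induced with 0.3% L-arabinose, DNA abundance read by NGS, three biological replicates, DESeq2 with apeglm shrinkage.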

Row | Sequence | shrunken log2 fold change
1 | RRIRLRPPRLPRPRPRPSGPPRP | -0.216
2 | RRIRLRPPRLPRPRPRPSICPRP | -0.0314
3 | RRIRLRPPRLPRPRPRPSIIPRP | -0.735
4 | RRIRLRPPRLPRPRPRPSKEPRP | -0.4
5 | RRIRLRPPRLPRPRPRPSKVPRP | -0.117
6 | RRIRLRPPRLPRPRPRPSLQPRP | -0.348
7 | RRIRLRPPRLPRPRPRPSMCPRP | -0.196
8 | RRIRLRPPRLPRPRPRPSPCPRP | -0.252
9 | RRIRLRPPRLPRPRPRPSPWPRP | -0.149
10 | RRIRLRPPRLPRPRPRPSRWPRP | -0.279
11 | RRIRLRPPRLPRPRPRPSSHPRP | -0.196
12 | RRIRLRPPRLPRPRPRPSSQPRP | -0.0758
13 | RRIRLRPPRLPRPRPRPSTDPRP | -0.356
14 | RRIRLRPPRLPRPRPRPSTNPRP | -0.451
15 | RRIRLRPPRLPRPRPRPSTYPRP | -0.205
16 | RRIRLRPPRLPRPRPRPSWTPRP | -0.0555
17 | RRIRLRPPRLPRPRPRPSYIPRP | -0.427
18 | RRIRLRPPRLPRPRPRPTAEPRP | 0.16
19 | RRIRLRPPRLPRPRPRPTAVPRP | 0.0335
20 | RRIRLRPPRLPRPRPRPTCMPRP | -0.228
21 | RRIRLRPPRLPRPRPRPTCSPRP | -0.0337
22 | RRIRLRPPRLPRPRPRPTDKPRP | -0.251
23 | RRIRLRPPRLPRPRPRPTDLPRP | -0.0813
24 | RRIRLRPPRLPRPRPRPTEWPRP | -0.0906
25 | RRIRLRPPRLPRPRPRPTFHPRP | 0.258

Row | Sequence | shrunken log2 fold change
26 | RRIRLRPPRLPRPRPRPTIGPRP | -0.192
27 | RRIRLRPPRLPRPRPRPTIKPRP | -0.395
28 | RRIRLRPPRLPRPRPRPTIMPRP | -0.334
29 | RRIRLRPPRLPRPRPRPTIRPRP | -0.0201
30 | RRIRLRPPRLPRPRPRPTKSPRP | 0.127
31 | RRIRLRPPRLPRPRPRPTLAPRP | 0.423
32 | RRIRLRPPRLPRPRPRPTLPPRP | 0.223
33 | RRIRLRPPRLPRPRPRPTLYPRP | 2.28
34 | RRIRLRPPRLPRPRPRPTPLPRP | 0.296
35 | RRIRLRPPRLPRPRPRPTPQPRP | 0.594
36 | RRIRLRPPRLPRPRPRPTQFPRP | 0.192
37 | RRIRLRPPRLPRPRPRPTRFPRP | 0.42
38 | RRIRLRPPRLPRPRPRPTRLPRP | 0.432
39 | RRIRLRPPRLPRPRPRPTRSPRP | 0.467
40 | RRIRLRPPRLPRPRPRPTSKPRP | -0.253
41 | RRIRLRPPRLPRPRPRPTSNPRP | -0.576
42 | RRIRLRPPRLPRPRPRPTTGPRP | 0.0715
43 | RRIRLRPPRLPRPRPRPTVLPRP | -0.126
44 | RRIRLRPPRLPRPRPRPTWLPRP | 0.584
45 | RRIRLRPPRLPRPRPRPTWMPRP | -0.0614
46 | RRIRLRPPRLPRPRPRPVAFPRP | 0.0295
47 | RRIRLRPPRLPRPRPRPVAKPRP | 0.123
48 | RRIRLRPPRLPRPRPRPVDEPRP | -0.0573
49 | RRIRLRPPRLPRPRPRPVDFPRP | 0.0727
50 | RRIRLRPPRLPRPRPRPVDSPRP | 0.0702

Row | Sequence | shrunken log2 fold change
51 | RRIRLRPPRLPRPRPRPVGDPRP | 0.416
52 | RRIRLRPPRLPRPRPRPVGRPRP | 0.215
53 | RRIRLRPPRLPRPRPRPVGVPRP | -0.0387
54 | RRIRLRPPRLPRPRPRPVHKPRP | -0.256
55 | RRIRLRPPRLPRPRPRPVHRPRP | 0.119
56 | RRIRLRPPRLPRPRPRPVIDPRP | -0.182
57 | RRIRLRPPRLPRPRPRPVIHPRP | -1.64
58 | RRIRLRPPRLPRPRPRPVISPRP | -0.266
59 | RRIRLRPPRLPRPRPRPVKAPRP | -0.0553
60 | RRIRLRPPRLPRPRPRPVKGPRP | -0.00152
61 | RRIRLRPPRLPRPRPRPVLMPRP | -0.04
62 | RRIRLRPPRLPRPRPRPVMWPRP | 0.283
63 | RRIRLRPPRLPRPRPRPVNQPRP | -0.138
64 | RRIRLRPPRLPRPRPRPVPPPRP | 0.245
65 | RRIRLRPPRLPRPRPRPVSWPRP | 0.22
66 | RRIRLRPPRLPRPRPRPVTKPRP | 0.0485
67 | RRIRLRPPRLPRPRPRPVVLPRP | -0.0303
68 | RRIRLRPPRLPRPRPRPVYEPRP | 0.788
69 | RRIRLRPPRLPRPRPRPVYNPRP | 0.41
70 | RRIRLRPPRLPRPRPRPWATPRP | -0.0496
71 | RRIRLRPPRLPRPRPRPWDKPRP | -0.0731
72 | RRIRLRPPRLPRPRPRPWFTPRP | -0.509
73 | RRIRLRPPRLPRPRPRPWGHPRP | 0.105
74 | RRIRLRPPRLPRPRPRPWGIPRP | -0.198
75 | RRIRLRPPRLPRPRPRPWGKPRP | -0.0201

Row | Sequence | shrunken log2 fold change
76 | RRIRLRPPRLPRPRPRPWHEPRP | 0.0149
77 | RRIRLRPPRLPRPRPRPWHVPRP | -0.121
78 | RRIRLRPPRLPRPRPRPWLPPRP | -0.464
79 | RRIRLRPPRLPRPRPRPWLRPRP | -0.0452
80 | RRIRLRPPRLPRPRPRPWNDPRP | 0.041
81 | RRIRLRPPRLPRPRPRPWNNPRP | -0.225
82 | RRIRLRPPRLPRPRPRPWNTPRP | -0.444
83 | RRIRLRPPRLPRPRPRPWNYPRP | -0.43
84 | RRIRLRPPRLPRPRPRPWPSPRP | 0.341
85 | RRIRLRPPRLPRPRPRPWRHPRP | -0.0415
86 | RRIRLRPPRLPRPRPRPWRSPRP | -0.0908
87 | RRIRLRPPRLPRPRPRPWSHPRP | 0.00674
88 | RRIRLRPPRLPRPRPRPWSVPRP | -0.0834
89 | RRIRLRPPRLPRPRPRPWTCPRP | -0.54
90 | RRIRLRPPRLPRPRPRPWTVPRP | -0.176
91 | RRIRLRPPRLPRPRPRPWYWPRP | 0.134
92 | RRIRLRPPRLPRPRPRPYALPRP | -0.141
93 | RRIRLRPPRLPRPRPRPYDHPRP | -0.165
94 | RRIRLRPPRLPRPRPRPYDMPRP | -0.921
95 | RRIRLRPPRLPRPRPRPYDSPRP | 0.00122
96 | RRIRLRPPRLPRPRPRPYEFPRP | -0.111
97 | RRIRLRPPRLPRPRPRPYEHPRP | -0.583
98 | RRIRLRPPRLPRPRPRPYFIPRP | -1.11
99 | RRIRLRPPRLPRPRPRPYFYPRP | -0.942
100 | RRIRLRPPRLPRPRPRPYGCPRP | -0.318

Row | Sequence | shrunken log2 fold change
101 | RRIRLRPPRLPRPRPRPYGGPRP | -0.0286
102 | RRIRLRPPRLPRPRPRPYGLPRP | -0.0893
103 | RRIRLRPPRLPRPRPRPYGQPRP | -0.0159
104 | RRIRLRPPRLPRPRPRPYIEPRP | -0.176
105 | RRIRLRPPRLPRPRPRPYKVPRP | -0.756
106 | RRIRLRPPRLPRPRPRPYKYPRP | 0.0639
107 | RRIRLRPPRLPRPRPRPYLKPRP | -0.396
108 | RRIRLRPPRLPRPRPRPYMSPRP | -0.0167
109 | RRIRLRPPRLPRPRPRPYMVPRP | -0.288
110 | RRIRLRPPRLPRPRPRPYPDPRP | -0.598
111 | RRIRLRPPRLPRPRPRPYSKPRP | -0.434
112 | RRIRLRPPRLPRPRPRPYWNPRP | -1.03
113 | RRIRLRPPRLPRPRPRPYWSPRP | -1.41
114 | RRIRLRPPRLPRPRPRPYYEPRP | -0.493
115 | RRIRLRPPRLPRPRPRPYYGPRP | -0.838
116 | RRIRLRPPRLPRPRPRPYYLPRP | -0.477
117 | RRIRLRPPRLPRPRPRPYYSPRP | -0.309
118 | RRIRMRPPRLPRPRPRPAAVPRP | 1.44
119 | RRIRMRPPRLPRPRPRPACAPRP | 0.837
120 | RRIRMRPPRLPRPRPRPACCPRP | 0.646
121 | RRIRMRPPRLPRPRPRPACMPRP | 0.64
122 | RRIRMRPPRLPRPRPRPADEPRP | -0.0062
123 | RRIRMRPPRLPRPRPRPADIPRP | 0.067
124 | RRIRMRPPRLPRPRPRPADQPRP | -0.0145
125 | RRIRMRPPRLPRPRPRPAGAPRP | 1.28

Row | Sequence | shrunken log2 fold change
126 | RRIRMRPPRLPRPRPRPAGDPRP | 0.882
127 | RRIRMRPPRLPRPRPRPAGGPRP | 0.831
128 | RRIRMRPPRLPRPRPRPAHHPRP | 0.0701
129 | RRIRMRPPRLPRPRPRPAHNPRP | 0.421
130 | RRIRMRPPRLPRPRPRPAIPPRP | 0.0268
131 | RRIRMRPPRLPRPRPRPANDPRP | 0.0988
132 | RRIRMRPPRLPRPRPRPARAPRP | 1.43
133 | RRIRMRPPRLPRPRPRPASLPRP | -0.0145
134 | RRIRMRPPRLPRPRPRPASMPRP | 0.311
135 | RRIRMRPPRLPRPRPRPASSPRP | -0.00458
136 | RRIRMRPPRLPRPRPRPASTPRP | 0.323
137 | RRIRMRPPRLPRPRPRPAVWPRP | 1.08
138 | RRIRMRPPRLPRPRPRPAYHPRP | -0.157
139 | RRIRMRPPRLPRPRPRPAYVPRP | -0.114
140 | RRIRMRPPRLPRPRPRPCAFPRP | 0.121
141 | RRIRMRPPRLPRPRPRPCKLPRP | -0.00365
142 | RRIRMRPPRLPRPRPRPCKTPRP | -0.00146
143 | RRIRMRPPRLPRPRPRPCMPPRP | -0.106
144 | RRIRMRPPRLPRPRPRPCNCPRP | -0.0499
145 | RRIRMRPPRLPRPRPRPCNEPRP | -0.249
146 | RRIRMRPPRLPRPRPRPCPKPRP | -0.214
147 | RRIRMRPPRLPRPRPRPCQIPRP | -0.0194
148 | RRIRMRPPRLPRPRPRPCTQPRP | -0.111
149 | RRIRMRPPRLPRPRPRPCVPPRP | 0.209
150 | RRIRMRPPRLPRPRPRPCWCPRP | -7.44e-05
